B1: THAP1; numbered along this chain (parent)
chain: MVQSCSAYGCKNRYDKDKPVSFHKFPLTRPSLCKEWEAAVRRKNFKPTKYSSICSEHFTPDCFKRECNNKLLKENAVPTIFLCTEPHDKKEDLLEPQEQLPPPPLPPPVSQVDAAIGLLMPPLQTPVNLSVFCDHNYTVEDTMHQRKRIHQLEQQVEKLRKKLKTAQQRCRRQERQLEKLKEVVHFQKEKDDVSERGYVILPNDYFEIVEVPA

Variants of: B1
Assay: THAP1 transcriptional activity (GFP+/GFP- enrichment relative to wild-type constructs) (ratio to WT); higher = more THAP1 activity (PSMB5 reporter activation)
Conditions: with PSMB5 promoter-GFP reporter
Method: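 Deep mutational scan of human THAP1. Site-saturation single amino acid variant library (residues 2-213) was expressed by lentivirus at MOI ~0.3 in THAP1-knockout HEK-293T cells carrying an endogenous PSMB5 promoter-GFP knock-in reporter. Five days post-transduction, BFP+ cells were FACS-sorted into GFP dim and GFP bright populations and variants were counted by Illumina sequencing. Activity is the GFP-bright/GFP-dim read fold change, mean of 2 replicates, divided by the mean fold change of wild-type (synonymous) constructs in the same screen pool; WT = 1.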

Variant	THAP1 transcriptional activity
A38S	0.593
A38C	0.377
A38P	0.09
A38F	0.511
A38I	0.735
A38D	1
A38T	0.773
A38W	0.234
A38K	1.34
A38R	1.14
A38H	0.797
A38M	0.788
A38V	0.684
A38Q	0.891
A38E	0.41
A38G	0.417
A38N	1.08
S31D	1.43
S31T	1.19
S31R	1.01
S31Q	0.998
S31I	0.728
S31Y	0.535
S31F	0.363

Variant	THAP1 transcriptional activity
S31V	0.895
S31G	1.17
S31A	1.03
S31H	0.565
S31C	0.206
S31M	0.6
S31K	1.13
S31P	0.204
S31L	1.21
S31N	0.574
S31E	1.31
C33P	0.117
C33V	0.301
C33N	0.177
C33H	0.173
C33M	0.188
C33I	0.159
C33A	0.499
C33L	0.708
C33E	0.0749
C33K	0.22
C33S	0.242
C33D	0.11
C33F	0.17

Variant	THAP1 transcriptional activity
C33Q	0.193
C33W	0.11
C33T	0.142
C33R	0.15
C33Y	0.162
S21W	0.115
S21T	0.174
S21I	0.128
S21M	0.182
S21H	0.0793
S21K	0.0427
S21R	0.131
S21L	0.0984
S21G	0.164
S21V	0.0819
S21N	0.152
S21Y	0.109
S21Q	0.176
S21P	0.0702
F22R	0.0771
F22D	0.0567
F22C	0.0658
F22G	0.0652
F22I	0.178

Variant	THAP1 transcriptional activity
F22E	0.0853
F22L	0.117
F22K	0.0858
F22Y	0.288
F22S	0.0454
F22Q	0.121
F22H	0.12
F22W	0.125
F22T	0.126
F22V	0.115
F22A	0.115
F22N	0.0832
F22M	0.0987
F22P	0.132
H23A	0.116
H23V	0.0823
H23I	0.0266
H23S	0.127
H23C	0.0806
H23E	0.123
H23K	0.125
H23L	0.0839
H23R	0.084
H23F	0.0843

Variant	THAP1 transcriptional activity
H23D	0.117
H23P	0.161
H23Q	0.0718
H23G	0.088
H23W	0.0807
H23N	0.0799
H23Y	0.179
H23T	0.0534
H23M	0.0825
L32E	0.135
L32K	0.267
L32S	0.21
L32V	0.794
L32M	0.357
L32D	0.155
L32A	0.175
L32N	0.173
L32T	0.295
L32Y	0.135
L32Q	0.378
L32R	0.31
L32I	0.906
L32W	0.161
L32C	0.199

Variant	THAP1 transcriptional activity
L32G	0.156
L32F	0.14
L32H	0.17
L32P	0.113
E37I	0.988
E37M	0.792
E37P	0.245
E37W	0.0974
E37Y	0.252
E37V	0.484
E37Q	0.337
E37G	0.195
E37A	0.542
E37F	0.177
E37N	0.451
E37R	0.157
E37S	0.558
E37K	0.292
E37C	0.963
E37H	0.454
E37T	0.905
E37L	1.16
E37D	0.182
E35L	1.18

Variant	THAP1 transcriptional activity
E35G	0.183
E35V	0.479
E35H	0.328
E35A	0.556
E35T	0.473
E35M	0.787
E35P	0.243
E35Y	0.266
E35D	0.688
E35K	0.751
E35S	0.44
E35W	0.203
E35Q	1.42
E35C	0.317
E35R	0.909
E35I	0.451
E35F	0.223
P30E	0.399
P30M	0.245
P30N	0.33
P30W	0.0759
P30H	0.384
P30D	0.254
P30G	0.282

Variant	THAP1 transcriptional activity
P30Q	0.583
P30F	0.129
P30V	0.418
P30K	0.428
P30Y	0.21
P30S	0.33
P30A	0.476
P30T	0.349
P30I	0.278
P30C	0.123
P30L	0.261
P30R	0.396
K34H	0.459
K34F	0.281
K34L	0.613
K34A	0.749
K34S	0.646
K34C	0.284
K34E	0.59
K34M	0.397
K34I	0.528
K34T	0.337
K34V	0.529
K34R	0.841

Variant	THAP1 transcriptional activity
K34Y	0.316
K34N	0.391
K34Q	0.971
K34G	0.217
K34W	0.233
K34D	0.207
K34P	0.0748
A39E	0.168
A39C	0.272
A39D	0.172
K24R	1.73
K24G	0.13
K24W	0.156
K24T	0.109
K24Y	0.11
K24F	0.1
K24C	0.146
K24A	0.122
K24H	0.345
K24S	0.088
K24E	0.138
K24M	0.118
K24D	0.116
K24L	0.156

Variant	THAP1 transcriptional activity
K24P	0.125
K24V	0.121
K24I	0.0809
K24N	0.0904
K24Q	0.0996
R29W	0.129
R29D	0.187
R29G	0.131
R29E	0.127
R29C	0.137
R29L	0.0833
R29M	0.162
R29F	0.154
R29K	0.357
R29Q	0.36
R29V	0.177
R29I	0.134
R29T	0.12
R29P	0.135
R29A	0.122
R29S	0.134
R29N	0.536
R29Y	0.118
R29H	0.211

Variant	THAP1 transcriptional activity
T28S	3.39
T28F	0.194
T28L	0.612
T28V	0.231
T28I	0.198
T28E	0.172
T28A	0.664
T28D	0.202
T28C	0.495
T28G	0.843
T28Y	0.137
T28W	0.188
T28P	0.103
T28Q	0.651
T28K	1.42
T28M	0.3
T28H	0.391
T28N	0.889
T28R	1.03
P26K	0.155
P26T	0.0945
P26I	0.178
P26N	0.147
P26H	0.0688

Variant	THAP1 transcriptional activity
P26V	0.127
P26C	0.106
P26Y	0.208
P26E	0.157
P26R	0.098
P26Q	0.222
P26F	0.0724
P26L	0.104
P26A	0.13
P26D	0.0858
P26G	0.0891
P26W	0.0853
P26S	0.0994
F25Y	0.203
F25H	0.115
F25N	0.108
F25D	0.123
F25P	0.105
F25A	0.123
F25G	0.182
F25M	0.131
F25T	0.0714
F25R	0.106
F25L	0.117

Variant	THAP1 transcriptional activity
F25K	0.0509
F25Q	0.0935
F25E	0.148
F25I	0.145
F25W	0.156
F25C	0.125
F25V	0.0907
F25S	0.0861
L27S	0.183
L27N	0.0759
L27I	0.729
L27A	0.142
L27D	0.111
L27M	0.41
L27F	0.503
L27R	0.23
L27G	0.0873
L27W	0.263
L27P	0.103
L27K	0.111
L27Y	0.304
L27Q	0.235
L27V	0.488
L27T	0.31

Variant	THAP1 transcriptional activity
L27H	0.0857
L27C	0.14
L27E	0.0928
W36C	0.248
W36N	0.101
W36Q	0.18
W36H	0.187
W36A	0.0783
W36E	0.13
W36S	0.197
W36M	0.182
W36R	0.107
W36K	0.123
W36F	0.221
W36Y	0.178
W36L	0.338
W36P	0.167
W36G	0.0718
W36T	0.143
W36D	0.159
W36V	0.138
W36I	0.0405

— the supplement of paper PMC11811203
